Data on two molecules can be found in US20250018040A1 (UNITED STATES OF AMERICA AS REPRESENTED BY THE SECRETARY …, published 2025).

The target in test [1] is T1, full length Fc-mesothelin (UniProt Q13421 296-598, limits assumed).
T1 construct: it is written here as in the name; also called Fc-MSLN; full length mesothelin attached to an Fc protein; not shown: Fc protein
Kind of test: Western blot. Here is the method: (§1) A Western blot assay was carried out to test the ability of mAb 15B6 or control mAb MN to bind to full length Fc-mesothelin and shed mesothelin, which had been shed by OVCAR-8 cells. Equal amounts of OVCAR-8 cell growth media were collected. The proteins were resolved by SDS gel electrophoresis. The bands were detected by Western blot using the antibodies MN and/or 15B6. Full length mesothelin attached to an Fc protein was used as positive control and reacts with both antibodies.
(In general: A western blot detects proteins with antibodies after separation by electrophoresis.)

The next test addresses T2, shed mesothelin (UniProt Q13421 296-585, limits assumed).
T2 construct: also called Shed MSLN; mesothelin shed by OVCAR-8 cells
Kind of test: Western blot of OVCAR-8 growth medium. Here is the method: as §1

Test [2] addresses T1, full length Fc-mesothelin. The experiment in a line: flow cytometry: Fc-mesothelin bound to 293T cells transfected with the CAR vector, detected with fluorescent anti-Fc antibody (column: Expressed by 293T cells?). Here is the method:
293T cells were independently transduced with the CAR-T vectors. Expression of each Fv by the 293T cells was tested. The CAR-T vectors were transfected into 293T cells. After two days of culture, Fc-mesothelin was bound to the cells. The bound Fc protein was detected by a secondary anti-Fc-antibody conjugated to a fluorescent dye using flow cytometry.
(In general: Flow cytometry measures light scatter and fluorescence of single cells or particles in a stream.)

T1 sequence (Q13421 other isoform, or with tags, fused parts or gaps limits assumed): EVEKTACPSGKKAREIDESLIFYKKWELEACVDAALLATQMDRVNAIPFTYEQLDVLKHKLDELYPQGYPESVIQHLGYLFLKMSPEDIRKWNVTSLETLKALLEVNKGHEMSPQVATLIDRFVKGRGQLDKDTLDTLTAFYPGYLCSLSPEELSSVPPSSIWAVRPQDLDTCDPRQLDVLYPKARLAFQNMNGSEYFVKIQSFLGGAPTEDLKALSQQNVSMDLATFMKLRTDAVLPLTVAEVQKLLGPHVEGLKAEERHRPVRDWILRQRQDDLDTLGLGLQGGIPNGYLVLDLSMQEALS
T2 sequence (Q13421 other isoform, or with tags, fused parts or gaps limits assumed): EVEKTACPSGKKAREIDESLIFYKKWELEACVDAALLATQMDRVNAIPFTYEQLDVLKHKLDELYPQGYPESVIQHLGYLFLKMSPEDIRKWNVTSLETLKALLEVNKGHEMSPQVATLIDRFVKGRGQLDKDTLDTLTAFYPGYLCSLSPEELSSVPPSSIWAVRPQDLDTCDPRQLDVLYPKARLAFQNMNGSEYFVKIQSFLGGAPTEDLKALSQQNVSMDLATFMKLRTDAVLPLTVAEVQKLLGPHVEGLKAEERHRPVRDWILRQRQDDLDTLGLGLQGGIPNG

B1: mAb 15B6 (antibody, mouse IgG2b, V domains shown)
VH: EVQLQQSGPVLVKPGASVKISCKASGYSFTGYYMHWVRQSLVKRLEWIGRINPYTGVPSYKHNFKDKASLTVDKSSSTAYMELHSLTSEDSAVYYCARELGGYWGQGTTLTVSS
VL: QAVVTQESALTTSPGETVTLTCRSSTGAVTTGNYPNWVQEKPDHLFTGLIAGTNNRAPGVPARFSGSLIGDKAALTITGAQTEDEAIYFCALWFSSHWVFGGGTKLTVL
notes: Murine IgG2b; For flow cytometry it was conjugated to ALEXA FLUOR 647; also called monoclonal antibody 15B6; 15B6 (IgG2b)
For B1, the binding result in test [1] was “binds”; with shed mesothelin, “no binding”.

B2: CAR Construct No. 2, 15B6 scFv (Vh-lin-Vl) (other)
chain: MEVQLQQSGPVLVKPGASVKISCKASGYSFTGYYMHWVRQSLVKRLEWIGRINPYTGVPSYKHNFKDKASLTVDKSSSTAYMELHSLTSEDSAVYYCARELGGYWGQGTTLTVSSGGGGSGGGGSGGGGSQAVVTQESALTTSPGETVTLTCRSSTGAVTTGNYPNWVQEKPDHLFTGLIAGTNNRAPGVPARFSGSLIGDKAALTITGAQTEDEAIYFCALWFSSHWVFGGGTKLTVLTSTTTPAPRPPTPAPTIASQPLSLRPEACRPAAGGAVHTRGLDFACDIYIWAPLAGTCGVLLLSLVITKRGRKKLLYIFKQPFMRPVQTTQEEDGCSCRFPEEEEGGCELRVKFSRSADAPAYQQGQNQLYNELNLGRREEYDVLDKRRGRDPEMGGKPRRKNPQEGLYNELQKDKMAEAYSEIGMKGERRRGKGHDGLYQGLSTATKDTYDALHMQALPPR
notes: Chimeric antigen receptor on 293T cells or T cells
With B2, the binding result in test [2] is listed as “binds”.
